# Measured values taken from ChEMBL document CHEMBL1142204, “Cathepsin A is the major hydrolase catalyzing the intracellular hydrolysis of the antiretroviral nucleotide phosphonoamidate prodrugs GS-7340 and GS-9131” (Antimicrob Agents Chemother, 2007).
# Legend:
# [1] = substrate: CC(C)OC(=O)[C@H](C)N[P@](=O)(CO[C@H](C)Cn1cnc2c(N)ncnc21)Oc1ccccc1; test: Ratio of kcat to Km for Cat A activity; details: Homo sapiens
# [2] = substrate: CC(C)OC(=O)[C@H](C)N[P@](=O)(CO[C@H](C)Cn1cnc2c(N)ncnc21)Oc1ccccc1; test: Activity of Cat A assessed as hydrolysis; details: Homo sapiens
protein,measurement,setting,value
"Lysosomal protective protein (Homo sapiens), P10619 (protein) MIRAAPPPLFLLLLLLLLLVSWASRGEAAPDQDEIQRLPGLAKQPSFRQYSGYLKGSGSKHLHYWFVESQKDPENSPVVLWLNGGPGCSSLDGLLTEHGPFLVQPDGVTLEYNPYSWNLIANVLYLESPAGVGFSYSDDKFYATNDTEVAQSNFEALQDFFRLFPEYKNNKLFLTGESYAGIYIPTLAVLVMQDPSMNLQGLAVGNGLSSYEQNDNSLVYFAYYHGLLGNRLWSSLQTHCCSQNKCNFYDNKDLECVTNLQEVARIVGNSGLNIYNLYAPCAGGVPSHFRYEKDTVVVQDLGNIFTRLPLKRMWHQALLRSGDKVRMDPPCTNTTAASTYLNNPYVRKALNIPEQLPQWDMCNFLVNLQYRRLYRSMNSQYLKLLSSQKYQILLYNGDVDMACNFMGDEWFVDSLNQKMEVQRRPWLVKYGDSGEQIAGFVKEFSHIAFLTIKGAGHMVPTDKPLAAFTMFSRFLNKQPY",kcat/Km,[1],2.9e+06 M⁻¹ s⁻¹
same,Km,[2],610 µM
